Results taken from patent publication US20200115432A1 (published 2020).

Legend:
[1] = target: T1, peptide on HLA-A*02:01 (human); assay: activation reporter or marker
T1 peptide: VYALPLKML

[2] = target: T2, peptide on HLA-A*24:02 (human); assay: activation reporter or marker
T2 peptide: VYALPLKML

B1: JG9-TCR (TCR, V domains shown)
Valpha: GQQLNQSPQSMFIQEGEDVSMNCTSSSIFNTWLWYKQEPGEGPVLLIALYKAGELTSNGRLTAQFGITRKDSFLNISASIPSDVGIYFCAGPMKTSYDKVIFGPGTSLSVIP
Vbeta: DAGVIQSPRHEVTEMGQEVTLRCKPISGHDYLFWYRQTMMRGLELLIYFNNNVPIDDSGMPEDRFSAKMPNASFSTLKIQPSEPRDSAVYFCASSSANYGYTFGSGTRLTVV
binding result [1]: no recognition
binding result [2]: no recognition
